From article PMC3326387 come the findings set out here.

This experiment has as its target ecto-FLRT3 (immobilized for SPR) (UniProt Q8BGT1). Description: SPR.
Sequence of UniProt Q8BGT1 (Q8BGT1 29-528): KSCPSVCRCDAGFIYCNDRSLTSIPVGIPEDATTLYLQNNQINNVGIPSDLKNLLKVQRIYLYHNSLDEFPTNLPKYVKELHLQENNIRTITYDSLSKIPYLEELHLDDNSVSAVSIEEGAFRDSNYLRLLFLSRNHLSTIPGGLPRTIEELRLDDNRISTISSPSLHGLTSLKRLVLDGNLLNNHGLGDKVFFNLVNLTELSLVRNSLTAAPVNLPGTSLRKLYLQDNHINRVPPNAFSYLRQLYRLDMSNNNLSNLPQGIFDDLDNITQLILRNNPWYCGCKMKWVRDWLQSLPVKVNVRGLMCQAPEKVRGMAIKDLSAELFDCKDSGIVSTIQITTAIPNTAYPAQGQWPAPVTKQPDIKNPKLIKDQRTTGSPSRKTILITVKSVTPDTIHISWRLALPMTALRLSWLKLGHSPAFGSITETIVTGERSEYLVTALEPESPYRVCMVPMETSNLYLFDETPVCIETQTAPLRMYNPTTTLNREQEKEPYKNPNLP

By Kd is commonly meant a measure of binding affinity in units of concentration. Lower therefore signals higher affinity. The substance “ecto-LPHN3-Fc (from UniProt Q80TS3 20-1537) (Fc fusion)” showed a Kd of 14.7 nM.
